Molecular target: the molecule itself
Experiment: SDS-PAGE and Western blot of synthetic peptide (self-association)
Description: Western blot analysis. After physical exercise sweat of the forehead was collected and analyzed by Western blot as already described (Rieg, S. et al. 2006 J. Investig. Dermatol. 126:354-365). Briefly, sweat was centrifuged 3 min at 13,000 rpm (16,000×g) to remove particles and frozen. Then, 15-μl portions of the samples and 4 μg of the DCD peptides LEK-45 and DCD-1L dissolved in water were separated by sodium dodecyl sulfate-polyacrylamide gel electrophoresis (using 15% acrylamide with 0.05% bisacrylamide), transferred electrophoretically (1200 mA/h) onto polyvinylidene difluoride membrane sheets (Immobilon-PSQ; Millipore, Germany) with a tank type blotter and then blocked in 10% nonfat milk in PBS (pH 7.4) for 30 min at room temperature. After incubation with a rabbit polyclonal anti-DCD antibody (1:2,000) that detects the C terminus of DCD-1L overnight at 4° C., the membrane sheets were washed with phosphate buffer and incubated with an anti-rabbit secondary biotin-conjugated polyclonal antibody (1:1,500 in blocking solution). After washing in phosphate buffer the Streptavidin-AP-conjugate (Roche, Mannheim, Germany) was used for the detection of biotin-labeled secondary antibody. The membrane was immersed in CDP-Star solution (Western Lightning chemiluminescence reagents for AP; Roche) for 10 min and then exposed to X-ray film (Eastman Kodak, Rochester, N.Y.).

B1: LEK-45 (peptide)
peptide: LEKGLDGAKKAVGGLGKLGKDAVEDLESVGKGAVHDVKDVLDSVL
  binding result: binds

B2: DCD-1L (peptide)
peptide: SSLLEKGLDGAKKAVGGLGKLGKDAVEDLESVGKGAVHDVKDVLDSVL
notes: also called synthetic peptide DCD-1L
  binding result: binds
